Holding throughout (experiment): purified protein
Holding throughout (assay type): biochemical, Kluyveromyces marxianus

Substrate in data set [1]: CC(=O)Oc1ccc([N+](=O)[O-])cc1
The conditions noted are these: 50 mM Tris-HCl, pH 8.0, 37 °C.

Substrate in data set [2]: CCCC(=O)Oc1ccc([N+](=O)[O-])cc1
The conditions noted are these: 50 mM Tris-HCl, pH 8.0, 37 °C.

Substrate in data set [3]: CC(C)(COP(=O)(O)OP(=O)(O)OC[C@H]1O[C@@H](n2cnc3c(N)ncnc32)[C@H](O)[C@@H]1OP(=O)(O)O)[C@@H](O)C(=O)NCCC(=O)NCCSC(=O)CCC(=O)O
The conditions noted are these: 100 mM HEPES, pH 8.0, 37 °C, 1 mM DTNB.

Substrate in data set [4]: CCCCCCCCCC(=O)SCCNC(=O)CCNC(=O)[C@H](O)C(C)(C)COP(=O)(O)OP(=O)(O)OC[C@H]1O[C@@H](n2cnc3c(N)ncnc32)[C@H](O)[C@@H]1OP(=O)(O)O
The conditions noted are these: 100 mM HEPES, pH 8.0, 37 °C, 1 mM DTNB.

Substrate in data set [5]: CCCC(=O)SCCNC(=O)CCNC(=O)[C@H](O)C(C)(C)COP(=O)(O)OP(=O)(O)OC[C@H]1O[C@@H](n2cnc3c(N)ncnc32)[C@H](O)[C@@H]1OP(=O)(O)O
The conditions noted are these: 100 mM HEPES, pH 8.0, 37 °C, 1 mM DTNB.

Changes are numbered by the printed parent chain. Names and notes keep the numbering of the source.

B1: KmYME (Kluyveromyces marxianus DMKU3-1042) (protein)
chain: MLLAYTVRPSNWSFTRRAYSATARAFNQQKGLLPLPIKETVDMAYDLHLPERSVIGKMPYHSPEPIIFYHGLLGSKRNYRHDCKKLATALQTPVYTVDIRNHGSSEHALPFDYNTLVNDLVHFAETHSLGKVNLVGYSLGAKVAMLACLKHPERFSAACIIDNSPEEQPHIKPLLTALVKSCVKLLDHHNVRADDKLWRHKASEALKKYIPDAGIRYYLLSNIINNPRVVEYRSPVINYDDGMLHFKNPVRHMMDFVTKEVAAWPTQELEGKQFLGPVNFIKATRSDFINPKSLQAINQYFPYHNIDEINATHFILNERPQEYLRAVTDFFKVTRYQLEKKREQDLAKIDQLNASESLKSARD
notes: expressed from pWD010 (T7 promoter) in E. coli BL21(DE3), nickel-column purified (tag not described); native full length 360 aa
As for B1, the Km in “purified protein [1]” amounted to 189.73 ± 12.20 µM; in the data set “purified protein [2]” it was 258.41 ± 5.97 µM; in the data set “purified protein [3]”, 387.58 ± 3.42 µM; in the data set “purified protein [4]”, 329.20 ± 12.75 µM; in the data set “purified protein [5]”, 468.44 ± 20.62 µM.

B2: KmYME (Kluyveromyces marxianus DMKU3-1042; L139M/Y137H) (protein)
chain: B1 chain with Y137H, L139M
notes: as for B1
For the protein B2, the Km in “purified protein [1]” worked out at 193.89 ± 10.00 µM; in “purified protein [2]”, 685.66 ± 34.83 µM; in “purified protein [3]”, 1022.84 ± 145.83 µM; in “purified protein [4]”, 449.88 ± 87.78 µM; in the data set “purified protein [5]”, 1138.20 ± 185.83 µM.

These data come from article PMC7396682, “Effect of a Novel Alpha/Beta Hydrolase Domain Protein on Tolerance of K. marxianus to Lignocellulosic Biomass Derived Inhibitors” (Frontiers in Bioengineering and Biotechnology, 2020).
